Assay results from patent US20140370035A1 (BIOVERATIV THERAPEUTICS, published 2014).
One block for each molecule: values may come before it.

Key:
[1] = test system: T1, rBDD FVIII (recombinant B-domain deleted FVIII)
T1 sequence: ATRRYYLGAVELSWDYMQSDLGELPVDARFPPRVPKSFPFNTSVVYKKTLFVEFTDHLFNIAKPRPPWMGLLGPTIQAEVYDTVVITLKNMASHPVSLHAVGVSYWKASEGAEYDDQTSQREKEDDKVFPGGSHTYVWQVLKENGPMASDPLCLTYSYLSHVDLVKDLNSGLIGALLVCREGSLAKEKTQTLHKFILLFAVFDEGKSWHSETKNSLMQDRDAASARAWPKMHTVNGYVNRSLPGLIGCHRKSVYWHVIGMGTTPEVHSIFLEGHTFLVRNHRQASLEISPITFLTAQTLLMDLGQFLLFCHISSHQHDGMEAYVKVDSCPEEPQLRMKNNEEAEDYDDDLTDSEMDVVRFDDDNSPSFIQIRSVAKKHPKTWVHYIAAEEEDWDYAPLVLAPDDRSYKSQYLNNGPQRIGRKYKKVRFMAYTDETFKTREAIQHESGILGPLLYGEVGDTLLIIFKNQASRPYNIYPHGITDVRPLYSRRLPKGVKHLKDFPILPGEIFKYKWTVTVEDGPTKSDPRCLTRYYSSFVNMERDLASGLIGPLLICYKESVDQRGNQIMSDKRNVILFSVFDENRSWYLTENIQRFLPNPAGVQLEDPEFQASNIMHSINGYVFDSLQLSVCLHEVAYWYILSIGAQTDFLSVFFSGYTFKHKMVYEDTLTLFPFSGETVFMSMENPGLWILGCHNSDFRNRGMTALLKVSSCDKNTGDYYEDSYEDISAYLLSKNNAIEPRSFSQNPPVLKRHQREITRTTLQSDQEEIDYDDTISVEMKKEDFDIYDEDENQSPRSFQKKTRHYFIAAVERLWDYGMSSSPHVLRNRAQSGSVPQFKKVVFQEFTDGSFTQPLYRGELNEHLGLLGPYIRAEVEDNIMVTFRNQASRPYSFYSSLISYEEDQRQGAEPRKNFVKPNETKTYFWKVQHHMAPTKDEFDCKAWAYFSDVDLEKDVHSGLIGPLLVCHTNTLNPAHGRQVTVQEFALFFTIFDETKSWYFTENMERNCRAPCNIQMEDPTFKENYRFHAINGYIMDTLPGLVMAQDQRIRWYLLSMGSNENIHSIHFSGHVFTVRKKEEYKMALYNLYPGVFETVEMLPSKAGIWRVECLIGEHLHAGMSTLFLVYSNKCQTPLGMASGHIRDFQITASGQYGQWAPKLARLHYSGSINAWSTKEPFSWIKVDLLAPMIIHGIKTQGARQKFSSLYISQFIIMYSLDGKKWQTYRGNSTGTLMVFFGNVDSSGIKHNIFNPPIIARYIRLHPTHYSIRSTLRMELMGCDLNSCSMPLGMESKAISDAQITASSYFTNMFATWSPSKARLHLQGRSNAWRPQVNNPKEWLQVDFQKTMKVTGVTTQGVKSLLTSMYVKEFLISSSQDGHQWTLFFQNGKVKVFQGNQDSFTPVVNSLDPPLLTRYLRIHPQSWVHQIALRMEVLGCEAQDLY

[2] = molecular target: single-chain canine FcRn (canine); test: SPR (Biacore T100), steady state, pH 6.0; single-chain FcRn amine-coupled to CM5 chip, analyte at 0.0625-2000 nM
Chain of single-chain canine FcRn (canine) (chain, as listed by the source, form in doubt): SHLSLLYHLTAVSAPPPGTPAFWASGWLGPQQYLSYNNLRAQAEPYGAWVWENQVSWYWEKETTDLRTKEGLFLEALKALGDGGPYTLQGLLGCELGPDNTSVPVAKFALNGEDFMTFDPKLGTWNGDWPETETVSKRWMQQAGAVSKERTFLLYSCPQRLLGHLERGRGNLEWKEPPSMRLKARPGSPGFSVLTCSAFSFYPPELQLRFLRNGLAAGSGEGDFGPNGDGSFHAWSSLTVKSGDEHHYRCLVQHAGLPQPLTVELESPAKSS

[3] = molecular target: single-chain human FcRn (human) (UniProt P55899); test: as above
[4] = molecular target: single-chain murine FcRn (mouse) (UniProt Q61559); test: as above
[5] = molecular target: T2, human von Willebrand factor (human, UniProt P04275 764-2813); test: SPR (BIAcore); FVIII protein as analyte, hvWf as ligand; N=5
T2 construct: also called hvWf; vWF
Method: (§1) Kinetic rate parameters of Kₐ (on-rate) and Kd (off-rate), and the affinity KD (Kd/Kₐ), were determined for each FVIII interaction under identical conditions.

[6] = molecular target: T2, human von Willebrand factor; test: SPR (BIAcore); FVIII protein as analyte, hvWf as ligand; N=5; KD = off-rate/on-rate
Method: as §1

Molecule: activated Factor IX
Km (nM) (called Kd in the text): FXa generation rate against FIXa concentration, thrombin-activated FVIII protein on 25% PS-75% PC vesicles [1]: 2.5 nM
Vmax (nM/min): FXa generation rate against FIXa concentration [1]: 4 nM/min

Molecule: activated protein C
normalized FXa generation rate following cleavage by APC (thrombin 30' = 100); shown without a number [1]: 'BDD FVIII' is one of the two lighter bars of each group (alike in the scan); both lighter bars: about 8-16 without thrombin, 100 after thrombin 30', not lowered after a further 15' with APC (about 108-111), fallen to about 18-27 after 90' with APC

The next lines start with the values.

EC50 [2]: 196 nM
EC50 [3]: 558 nM
EC50 [4]: < 22.4 nM
Molecule: Human IgG1 (antibody)

koff [5]: 0.00114 s⁻¹
kon [5]: 1.37e+06 M⁻¹ s⁻¹
Kd [6]: 0.846 nM
B1: rBDD FVIII (recombinant B-domain deleted FVIII) (other)
chain: T1 sequence
notes: The commercial product is largely processed into heavy and light chains; also called XYNTHA
